Assay results taken from paper PMC4338608.

What was measured:
Test in all cases: resonant mirror detection
[1] = biological target: GST-NHE1cd mutant M2 (R556FNKKYVKK→…) (rat (Rattus norvegicus))
[2] = biological target: GST-NHE1cd mutant M1 (K513KKQETKR→AAAQETAA) (rat (Rattus norvegicus))
[3] = biological target: GST-NHE1cd mutant M3 (K513KK→AAA) (rat (Rattus norvegicus))
[4] = biological target: recombinant human calmodulin with four extra N-terminal amino acids Gly-Ser-His-Met (human)

Kd [1] [µM]	kon [1] [M⁻¹ s⁻¹]	Kd [2] [µM]	kon [2] [M⁻¹ s⁻¹]	Kd [3] [nM]	koff [3] [s⁻¹]	kon [3] [M⁻¹ s⁻¹]	Kd [4] [nM]	Substance
26.1	240	4.79	250					exon 5-encoded human 4.1R^80 polypeptide (GST fusion) (domain or fragment)
				545	0.065	120000	100	recombinant 4.1R FERM domain (from UniProt P11171 210-488) (domain or fragment)
